Here are results for 1 molecule from article PMC6255954 (British Journal of Pharmacology, 2018).

As a reminder, the pKi is the Ki on a negative log10 scale, so that one unit is a factor of ten. The pKd is the negative decadic logarithm of the Kd, by convention in mol/L.

Assay [1] deals with T1, GFP‐tagged human NOP receptor in HEK cells (HEK_(hNOP‐GFP)) (human, UniProt P41146 1-370). As to the kind of experiment: cell-based or functional assay.
The target in assay [2] is T2, human N/OFQ peptide (NOP) receptor, recombinant in HEK cells (HEK_(hNOP)) (human, UniProt P41146 1-370).
T2 construct: nociceptin/orphanin FQ (N/OFQ) peptide receptor (NOP), human, recombinant in HEK cells, no GFP; also called HEKNOP; source: HEK cells expressing the recombinant NOP receptor; live cells on coverslips (confocal) and radioligand displacement
T2 sequence (P41146 whole entry): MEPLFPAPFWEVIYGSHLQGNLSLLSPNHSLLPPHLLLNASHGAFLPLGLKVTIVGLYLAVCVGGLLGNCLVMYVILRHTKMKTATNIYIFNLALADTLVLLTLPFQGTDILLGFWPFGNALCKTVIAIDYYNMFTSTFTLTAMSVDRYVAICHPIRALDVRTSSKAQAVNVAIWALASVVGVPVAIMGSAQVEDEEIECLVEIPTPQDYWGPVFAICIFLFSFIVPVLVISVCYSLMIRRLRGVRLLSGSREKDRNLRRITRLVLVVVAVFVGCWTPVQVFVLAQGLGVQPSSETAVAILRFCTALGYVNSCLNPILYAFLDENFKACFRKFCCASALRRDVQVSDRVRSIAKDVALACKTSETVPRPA
Nature of the assay: radioligand binding; displacement of [3H]-N/OFQ in HEK_(hNOP) and HEK_(hNOP-GFP) cells, room temperature. The note with it: one partner purified. A general note: Loss of bound radioactivity is the signal in a displacement assay; it reports binding, not function.

Assay [3] has as its target T1, GFP‐tagged human NOP receptor in HEK …. The assay is described as above. The note with it: one partner purified.
Assay [4] addresses T3, human N/OFQ peptide (NOP) receptor, recombinant in CHO cells (CHO_(hNOP)) (human, UniProt P41146 1-370).
T3 construct: nociceptin/orphanin FQ (N/OFQ) peptide receptor (NOP), human, recombinant in CHO cells; used as cell membranes; source: CHO cells, stably transfected, cell membranes
As to the kind of experiment: radioligand binding; displacement of ~0.8 nM [3H]-N/OFQ from CHO_(hNOP) membranes (20-40 ug protein) by 1 pM-10 uM ligand; 50 mM Tris-HCl pH 7.4 with 0.5% BSA, room temperature, 1 h, vacuum filtration; non-specific binding with 1 uM N/OFQ. The note with it: one partner purified.

Assay [5] deals with T2, human N/OFQ peptide (NOP) receptor, …. Nature of the assay: confocal microscopy of a fluorescent ligand on live cells; N/OFQ_(ATTO594) added cumulatively (1 pM-100 nM) to HEK_(hNOP) or HEK_(hNOP-GFP) cells on coverslips, 5 min at 4°C in Krebs buffer pH 7.4, washed, imaged with the 594 nm laser; corrected total cell fluorescence; saturation curve. The note with it: one partner purified.

Assay [6] deals with T1, GFP‐tagged human NOP receptor in HEK …. The assay is described as above. The note with it: one partner purified.

T1 sequence (P41146 whole entry): as above
T3 sequence (P41146 whole entry): as above

For the molecule FGGFTGARKSARKLANQC (ATTO 594 on Cys18; C-terminal amide (NH2)) [[Cys(ATTO 594)^18]N/OFQ‐NH2], the “pEC50, inhibition of forskolin-stimulated cAMP formation in HEK_(hNOP-GFP) cells, 0.1 pM-1 μM, 37°C, 15 min” value in assay [1] was determined as 9.73. Besides, the values for the negative logarithm of the Ki (pKi) in assay [2], in assay [3] and in assay [4] were 9.14, 8.98 and 9.21, respectively. In addition, the negative logarithm of the Kd (pKd) in assay [5] stood at 9.51; in assay [6], 8.53.
